This test deals with His-CLK1(ΔN) (mouse). Put plainly: kinetic competition.

Sequence of SRSF1 (His-tagged) (Q07955 whole entry): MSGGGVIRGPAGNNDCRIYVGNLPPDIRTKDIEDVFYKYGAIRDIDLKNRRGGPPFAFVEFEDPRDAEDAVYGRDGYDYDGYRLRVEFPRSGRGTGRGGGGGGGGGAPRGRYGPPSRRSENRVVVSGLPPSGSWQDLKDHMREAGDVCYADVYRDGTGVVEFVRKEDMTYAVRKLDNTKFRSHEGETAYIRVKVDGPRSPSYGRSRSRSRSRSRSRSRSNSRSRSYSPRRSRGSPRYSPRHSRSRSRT

For the substance “SRSF1 (His-tagged) (from UniProt Q07955 1-248) (natural protein)”, the Ki was 0.3 µM.

In general, Ki refers to a dissociation constant, usually derived from enzyme kinetics or from competition with a known ligand.

The values above are taken from PMC5056641.
